Literature values, collected in article PMC3535496.

Target: Jun TAD (Homo sapiens) (UniProt P05412)
Chain of UniProt P05412 (P05412 47-89): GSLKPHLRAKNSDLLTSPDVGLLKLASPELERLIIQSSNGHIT

Kd: 30 µM
Substance: CBP KIX (from UniProt Q92793)
